Experimental data reported in the supplement of paper PMC7877785.
± gives the uncertainty stated by the source.

Test: self-splicing fitness, log relative to wild type (ln ratio); higher = more splicing; Tetrahymena group I intron in knt gene, E. coli kanamycin selection, DiMSum; sequences stand for … in CUCUCU…GGAGGGAAAAGUUAUCAGGCAUGCACCUGGUAGCUAGUCUUUAAACCAAUAGAUUGCAUCGGUUUAAAAGGCAAGACCGUCAAAUUGCGGGAAAGGGGUCAACAGCCGUUCAGUACCAAGUCUCAGGGGAAACUUUGAGAUGGCCUUGCAAAGGGUAUGGUAAUAAGCUGACGGACAUGGUCCUAACCACGCAGCCAAGUCCUAAGUCAACAGAUCUUCUGUUGAUAUGGAUGCAGUUCACAGACUAAAUGUCGGUCGGGGAAGAUGUAUUCUUCUCAUAAGAUAUAGUCGGACCUCUCCUUAAUGGGAGCUAGCGGAUGAAGUGAUGCAACACUGGAGCCGCUGGGAACUAAUUUGUAUGCGAAAGUAUAUUGAUUAGUUUUGGAGUACUCGUGGUCG
In short: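 The eight P1ex-region nucleotides of an intron in the knt kanamycin-resistance gene on pET-22b(+) were all randomised and the library put into E. coli BL21(DE3). Six replicate transformations were grown overnight at 37°C or 30°C on LB agar with or without 25 μg/mL kanamycin, together with 100 μg/mL carbenicillin, 50 μM IPTG and 0.2% rhamnose. Colonies were pooled and amplicon-sequenced on an Illumina HiSeq 2500. Fitness from DiMSum is the error-weighted combination of wild-type-normalised replicate fold changes, kanamycin over none.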

Row | Sequence | self-splicing fitness (ln) (30 °C) | self-splicing fitness (ln) (37 °C)
1 | UAUAAGCAAUAUUACGCCAC | -3.21 ± 0.43 | -1.21 ± 0.38
2 | GUGAAGCAAUAUUACGCACU | -3.68 ± 0.47 | -2.19 ± 0.29
3 | AAUAAGCAAUAUUACGCAAG | -1.77 ± 0.1 | -1.59 ± 0.14
4 | AUAUAGCAAUAUUACGAAAG | -3.28 ± 0.25 | -2.08 ± 0.38
5 | ACAGAGCAAUAUUACGCCCG | -3.2 ± 0.21 | -1.63 ± 0.18
6 | AAGUAGCAAUAUUACGGGAU | -3.14 ± 0.15 | -1.61 ± 0.14
7 | AGAUAGCAAUAUUACGUCGC | -3.24 ± 0.39 | -1.21 ± 0.23
8 | UCGUAGCAAUAUUACGUCAA | -2.24 ± 0.23 | -1.53 ± 0.15
9 | AACCAGCAAUAUUACGUACC | -0.685 ± 0.08 | 0.0338 ± 0.11
10 | GGUGAGCAAUAUUACGAGGG | -3.16 ± 0.26 | -2.43 ± 0.24
11 | UGAUAGCAAUAUUACGGAGA | -2.83 ± 0.33 | -1.68 ± 0.42
12 | AGAAAGCAAUAUUACGUCGA | -0.974 ± 0.069 | -0.242 ± 0.08
13 | CCCUAGCAAUAUUACGCGCA | -2.49 ± 0.45 | -1.72 ± 0.32
14 | AACCAGCAAUAUUACGAACA | -0.809 ± 0.07 | 0.214 ± 0.07
15 | CAGAAGCAAUAUUACGUACA | -2.14 ± 0.11 | -0.932 ± 0.12
16 | AGGGAGCAAUAUUACGUUGC |  | -1.37 ± 0.31
17 | CCGAAGCAAUAUUACGGGAU | -3.69 ± 0.26 | -2.47 ± 0.22
18 | UGAAAGCAAUAUUACGAAAA | -2.53 ± 0.23 | -1.14 ± 0.16
19 | UGCUAGCAAUAUUACGGAGC |  | -1.42 ± 0.41
20 | CUCCAGCAAUAUUACGAUCC | -4.16 ± 0.47 | -1.49 ± 0.32
21 | UUUUAGCAAUAUUACGAUGA | 0.0426 ± 0.16 | -0.186 ± 0.2
22 | GAACAGCAAUAUUACGGGGU | -2.39 ± 0.081 | -2.57 ± 0.15
23 | GAUCAGCAAUAUUACGCGAC | -1.63 ± 0.15 | -1.62 ± 0.15
24 | UACAAGCAAUAUUACGCUCU | -1.36 ± 0.087 | -0.0585 ± 0.11
25 | UGUGAGCAAUAUUACGGGAU | -4.32 ± 0.41 | -2.17 ± 0.38

Row | Sequence | self-splicing fitness (ln) (30 °C) | self-splicing fitness (ln) (37 °C)
26 | CUGGAGCAAUAUUACGGUCU | -4.34 ± 0.32 | -2.38 ± 0.29
27 | CGCUAGCAAUAUUACGAAGG | -1.06 ± 0.098 | -0.735 ± 0.13
28 | UUAAAGCAAUAUUACGUAUC | -2.17 ± 0.12 | -1.87 ± 0.16
29 | AUUGAGCAAUAUUACGGGCG |  | -2.13 ± 0.34
30 | CAUCAGCAAUAUUACGUGGU | -3.2 ± 0.096 | -2.07 ± 0.12
31 | UGACAGCAAUAUUACGCCCA | 0.217 ± 0.12 | 0.269 ± 0.16
32 | UCAAAGCAAUAUUACGUAGU | -3.63 ± 0.21 | -1.69 ± 0.17
33 | UCGCAGCAAUAUUACGCCGG | -2.67 ± 0.22 | -1.76 ± 0.38
34 | AAUAAGCAAUAUUACGUUUC | -4.09 ± 0.28 | -2.46 ± 0.24
35 | AGAGAGCAAUAUUACGGCAC |  | -1.68 ± 0.18
36 | GAGAAGCAAUAUUACGCUAG | -1.66 ± 0.12 | -0.805 ± 0.15
37 | CAGCAGCAAUAUUACGGGUC | -2.33 ± 0.14 | -1.96 ± 0.19
38 | CGACAGCAAUAUUACGGCGG | -0.174 ± 0.078 | 0.335 ± 0.11
39 | CACGAGCAAUAUUACGAGCA | -4.24 ± 0.39 | -3.46 ± 0.4
40 | AUUAAGCAAUAUUACGACAG | -1.91 ± 0.16 | -1.47 ± 0.19
41 | ACUUAGCAAUAUUACGUGGG | -2.95 ± 0.14 | -1.14 ± 0.12
42 | GGACAGCAAUAUUACGAUGA | -1.08 ± 0.15 | -1.65 ± 0.14
43 | AUAGAGCAAUAUUACGAAAA | -1.06 ± 0.3 | -1.85 ± 0.35
44 | AGGGAGCAAUAUUACGCGGG | -1.93 ± 0.2 | 
45 | GCACAGCAAUAUUACGGCAG | -3.39 ± 0.2 | -1.4 ± 0.16
46 | UUAGAGCAAUAUUACGCCCA | -1.04 ± 0.19 | -0.676 ± 0.3
47 | GCGUAGCAAUAUUACGGACC | -2.2 ± 0.24 | -2.35 ± 0.35
48 | AACCAGCAAUAUUACGUCCC | -0.726 ± 0.13 | 0.292 ± 0.18
49 | GAGGAGCAAUAUUACGAUUC | -3.4 ± 0.27 | -1.65 ± 0.22
50 | CCCCAGCAAUAUUACGGUUC | -4.25 ± 0.25 | -2.97 ± 0.28

Row | Sequence | self-splicing fitness (ln) (30 °C) | self-splicing fitness (ln) (37 °C)
51 | UAUCAGCAAUAUUACGCUAU | -2.29 ± 0.11 | -1.74 ± 0.1
52 | UACAAGCAAUAUUACGUUGC | -4.71 ± 0.42 | -2.94 ± 0.27
53 | CGCCAGCAAUAUUACGAACU |  | 0.274 ± 0.25
54 | ACAUAGCAAUAUUACGCGUC | -3.71 ± 0.18 | -3.26 ± 0.28
55 | UGAUAGCAAUAUUACGGCCA | -0.243 ± 0.14 | 0.424 ± 0.2
56 | AUUGAGCAAUAUUACGUUGU | -3.5 ± 0.14 | -2.1 ± 0.16
57 | CUCAAGCAAUAUUACGGGUA | -2.42 ± 0.14 | -1.01 ± 0.1
58 | CCGAAGCAAUAUUACGAAUU | -3.28 ± 0.4 | -2.87 ± 0.28
59 | AUUCAGCAAUAUUACGUCAA | -0.663 ± 0.11 | -0.912 ± 0.11
60 | AAAGAGCAAUAUUACGCAGG | -3.47 ± 0.24 | -3.45 ± 0.35
61 | GCAGAGCAAUAUUACGGGGA | -3.65 ± 0.37 | -2.84 ± 0.36
62 | AACUAGCAAUAUUACGCGUA | -1.19 ± 0.09 | -0.289 ± 0.083
63 | CCUUAGCAAUAUUACGAGGG | -3.54 ± 0.24 | -1.39 ± 0.21
64 | AGCGAGCAAUAUUACGCUUC | -3.16 ± 0.24 | -2.02 ± 0.28
65 | UGCUAGCAAUAUUACGAAAG | -2.06 ± 0.21 | -0.114 ± 0.19
66 | AUCCAGCAAUAUUACGAAUU | -1.43 ± 0.084 | -1.04 ± 0.11
67 | UUUUAGCAAUAUUACGUGUA | -2.96 ± 0.27 | -1.84 ± 0.17
68 | CGCGAGCAAUAUUACGGGGC | -3.26 ± 0.26 | 
69 | UCUCAGCAAUAUUACGGUAA | -2.11 ± 0.14 | -1.02 ± 0.12
70 | AUGGAGCAAUAUUACGACAA | -1.86 ± 0.22 | -2.46 ± 0.22
71 | UUCCAGCAAUAUUACGUUUG | -4.67 ± 0.46 | -2.83 ± 0.24
72 | UAACAGCAAUAUUACGAAGU | -3.97 ± 0.17 | -3.18 ± 0.16
73 | GGGCAGCAAUAUUACGGAGC | -2.15 ± 0.19 | -1.12 ± 0.2
74 | CGAGAGCAAUAUUACGUAUG | -3.68 ± 0.29 | -1.49 ± 0.21
75 | GGCCAGCAAUAUUACGAAAC | -0.973 ± 0.079 | 0.00581 ± 0.1

Row | Sequence | self-splicing fitness (ln) (30 °C) | self-splicing fitness (ln) (37 °C)
76 | UUACAGCAAUAUUACGACAU | -1.971 ± 0.014 | -1.02 ± 0.033
77 | GAUAAGCAAUAUUACGGCCG | -1.35 ± 0.1 | -0.332 ± 0.15
78 | UCUUAGCAAUAUUACGUCUG | -2.67 ± 0.22 | -2.95 ± 0.37
79 | GUGCAGCAAUAUUACGCGGU | -2.93 ± 0.19 | -2.94 ± 0.32
80 | CGACAGCAAUAUUACGGCGU | -3.22 ± 0.088 | -1.59 ± 0.074
81 | ACACAGCAAUAUUACGAUAA | -2.46 ± 0.098 | -1.97 ± 0.11
82 | UAGGAGCAAUAUUACGAAGU |  | -2.35 ± 0.43
83 | AGUGAGCAAUAUUACGGAUG | -3.2 ± 0.24 | -3.06 ± 0.3
84 | AGCUAGCAAUAUUACGCGUG | -1.6 ± 0.088 | -1.53 ± 0.12
85 | ACCAAGCAAUAUUACGAUCU | -1.29 ± 0.064 | 0.0583 ± 0.076
86 | CACUAGCAAUAUUACGUUAC | -3.4 ± 0.14 | -2.77 ± 0.16
87 | UCAAAGCAAUAUUACGGGCU | -2.34 ± 0.11 | -2.55 ± 0.14
88 | AGUCAGCAAUAUUACGUCAA | -2.24 ± 0.12 | -1.09 ± 0.1
89 | CAGUAGCAAUAUUACGAUGA | -1.92 ± 0.24 | 0.175 ± 0.18
90 | AGCCAGCAAUAUUACGCGGU | -2.93 ± 0.28 | -2.29 ± 0.33
91 | AUCGAGCAAUAUUACGAAGG | -2.56 ± 0.23 | -2.28 ± 0.31
92 | UCCAAGCAAUAUUACGCCCU | -2.49 ± 0.24 | -1.32 ± 0.26
93 | UGCGAGCAAUAUUACGCGAG | -3.16 ± 0.23 | -1.79 ± 0.25
94 | UGAGAGCAAUAUUACGGGGC | -2.38 ± 0.39 | -2.17 ± 0.46
95 | GCGCAGCAAUAUUACGGUGC | -4.08 ± 0.25 | -2.13 ± 0.32
96 | CGGCAGCAAUAUUACGUGUU | -3.41 ± 0.13 | -1.95 ± 0.13
97 | UUGCAGCAAUAUUACGGCAU | -2.44 ± 0.19 | -1.19 ± 0.1
